Data on 1 substance can be found in patent US20070190601.

Numbering of substitutions follows the chain as printed.

Test in all cases: cell_activity
Series [1] concerns T1, NLS-int-1 N-terminal MTQGVVTG replaced with MEPKKKRK (SEQ 57), joined at +1 V (Streptomyces phage phiC31).
T1 sequence: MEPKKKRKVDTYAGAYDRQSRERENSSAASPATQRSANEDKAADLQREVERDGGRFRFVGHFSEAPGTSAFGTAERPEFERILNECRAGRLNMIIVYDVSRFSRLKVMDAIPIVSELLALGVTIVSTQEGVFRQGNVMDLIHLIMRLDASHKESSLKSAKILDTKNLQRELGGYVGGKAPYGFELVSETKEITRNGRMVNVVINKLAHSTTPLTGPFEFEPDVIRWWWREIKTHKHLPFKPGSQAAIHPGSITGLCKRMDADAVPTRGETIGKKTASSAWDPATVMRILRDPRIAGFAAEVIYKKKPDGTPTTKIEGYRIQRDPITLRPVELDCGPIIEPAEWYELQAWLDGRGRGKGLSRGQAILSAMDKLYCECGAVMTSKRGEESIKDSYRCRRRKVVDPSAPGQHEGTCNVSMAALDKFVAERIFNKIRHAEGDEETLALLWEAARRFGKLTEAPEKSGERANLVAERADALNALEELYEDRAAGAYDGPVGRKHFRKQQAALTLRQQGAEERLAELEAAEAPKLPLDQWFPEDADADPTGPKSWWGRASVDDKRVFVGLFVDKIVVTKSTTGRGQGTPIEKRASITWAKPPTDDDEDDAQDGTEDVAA
To be noted: DF-1 cells; 2.5 colonies avg, background level; reflects recombination activity, not binding.

Series [2] relates to T2, 3rdGTG-int (+1 start) (Streptomyces phage phiC31).
T2 sequence: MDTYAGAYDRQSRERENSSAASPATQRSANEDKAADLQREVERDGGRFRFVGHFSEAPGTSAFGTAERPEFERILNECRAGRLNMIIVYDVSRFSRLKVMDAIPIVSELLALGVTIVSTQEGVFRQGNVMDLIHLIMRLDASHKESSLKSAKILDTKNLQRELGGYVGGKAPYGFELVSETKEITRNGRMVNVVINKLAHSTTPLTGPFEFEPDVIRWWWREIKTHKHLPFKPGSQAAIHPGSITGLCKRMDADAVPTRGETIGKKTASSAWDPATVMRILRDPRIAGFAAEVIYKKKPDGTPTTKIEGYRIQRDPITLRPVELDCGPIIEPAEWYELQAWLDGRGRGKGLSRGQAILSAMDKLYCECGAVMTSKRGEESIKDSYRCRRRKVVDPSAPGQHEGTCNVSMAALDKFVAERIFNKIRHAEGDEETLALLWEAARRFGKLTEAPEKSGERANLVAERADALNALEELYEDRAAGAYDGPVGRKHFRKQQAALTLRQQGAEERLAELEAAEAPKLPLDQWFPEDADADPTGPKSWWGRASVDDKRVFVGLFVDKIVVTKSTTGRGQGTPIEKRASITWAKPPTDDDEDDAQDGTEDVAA
Particulars: DF-1 cells; 14 colonies avg.

In series [3] the test system is T3, 3rdGTG-int-NLS PKKKRKV appended after A605 (Streptomyces phage phiC31).
T3 sequence: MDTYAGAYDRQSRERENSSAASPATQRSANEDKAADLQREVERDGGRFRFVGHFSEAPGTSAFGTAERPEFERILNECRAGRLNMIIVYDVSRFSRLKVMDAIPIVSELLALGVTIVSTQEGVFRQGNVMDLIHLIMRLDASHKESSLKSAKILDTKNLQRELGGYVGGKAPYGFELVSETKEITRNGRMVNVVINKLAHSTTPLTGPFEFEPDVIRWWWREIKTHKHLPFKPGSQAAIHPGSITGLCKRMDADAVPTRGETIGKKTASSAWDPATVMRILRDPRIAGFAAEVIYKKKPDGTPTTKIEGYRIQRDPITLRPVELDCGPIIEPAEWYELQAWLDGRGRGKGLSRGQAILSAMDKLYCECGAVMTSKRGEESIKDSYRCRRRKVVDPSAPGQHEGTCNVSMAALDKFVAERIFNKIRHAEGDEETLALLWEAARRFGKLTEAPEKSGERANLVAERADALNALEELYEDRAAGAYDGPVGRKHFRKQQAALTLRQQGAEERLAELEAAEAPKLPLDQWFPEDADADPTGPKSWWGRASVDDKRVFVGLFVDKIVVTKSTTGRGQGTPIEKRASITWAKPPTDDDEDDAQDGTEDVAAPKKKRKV
Particulars: DF-1 cells; 10 colonies, one experiment.

Series [4] has as its system T4, int-NLS234 insertion PPKKKRKVE between G and S at position 234 (SEQ 61) (Streptomyces phage phiC31).
T4 sequence: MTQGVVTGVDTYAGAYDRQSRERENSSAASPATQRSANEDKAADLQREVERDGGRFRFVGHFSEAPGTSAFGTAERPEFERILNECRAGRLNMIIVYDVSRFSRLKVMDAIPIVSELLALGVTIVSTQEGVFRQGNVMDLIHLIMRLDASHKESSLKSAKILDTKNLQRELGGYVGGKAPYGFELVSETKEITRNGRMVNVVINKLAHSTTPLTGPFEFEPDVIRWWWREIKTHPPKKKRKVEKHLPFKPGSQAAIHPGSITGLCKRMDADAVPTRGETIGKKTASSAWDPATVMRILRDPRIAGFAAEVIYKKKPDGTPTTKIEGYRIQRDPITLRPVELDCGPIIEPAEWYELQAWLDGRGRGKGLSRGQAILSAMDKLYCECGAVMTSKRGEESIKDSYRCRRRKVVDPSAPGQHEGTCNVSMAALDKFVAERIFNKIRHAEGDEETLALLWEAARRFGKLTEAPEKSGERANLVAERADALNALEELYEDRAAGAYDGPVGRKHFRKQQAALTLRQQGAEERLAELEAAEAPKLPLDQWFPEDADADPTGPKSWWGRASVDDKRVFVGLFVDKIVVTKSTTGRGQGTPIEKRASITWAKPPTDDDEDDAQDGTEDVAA
Particulars: DF-1 cells; 84 colonies avg.

Series [5] relates to T5, phiC31 integrase (wild type, -8 ATG start) (Streptomyces phage phiC31).
T5 sequence: T1 sequence with E2T, P3Q, K4G, K5V, K6V, R7T, K8G
To be noted: integration of pCMV-pur-attB into chicken DF-1 genome pseudo-attP sites; 103.8 colonies avg.

In series [6] the test system is T6, c-myc-NLS-int N-terminal MTQGVVT replaced with MAPAAKRLKLDSL (SEQ 59), NLS joined at -1 G (Streptomyces phage phiC31).
T6 sequence: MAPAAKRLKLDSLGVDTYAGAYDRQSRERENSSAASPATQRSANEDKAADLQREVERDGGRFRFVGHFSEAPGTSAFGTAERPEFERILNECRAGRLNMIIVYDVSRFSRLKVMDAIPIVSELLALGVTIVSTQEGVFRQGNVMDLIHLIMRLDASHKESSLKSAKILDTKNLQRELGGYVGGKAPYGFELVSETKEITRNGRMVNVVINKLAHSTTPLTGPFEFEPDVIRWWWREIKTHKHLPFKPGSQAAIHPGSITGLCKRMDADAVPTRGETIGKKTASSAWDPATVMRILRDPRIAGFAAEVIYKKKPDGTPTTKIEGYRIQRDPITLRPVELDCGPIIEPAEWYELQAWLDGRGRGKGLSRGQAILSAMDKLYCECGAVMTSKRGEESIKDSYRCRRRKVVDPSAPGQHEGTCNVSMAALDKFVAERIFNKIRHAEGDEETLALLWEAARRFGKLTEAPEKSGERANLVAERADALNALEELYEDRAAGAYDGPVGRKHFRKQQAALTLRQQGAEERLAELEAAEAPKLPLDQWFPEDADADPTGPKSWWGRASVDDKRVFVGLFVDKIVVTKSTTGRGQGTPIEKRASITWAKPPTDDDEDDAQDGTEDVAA
Particulars: DF-1 cells; 56.2 colonies avg.

Series [7] has as its system T7, NLS-int-2 MEPKKKRKV added upstream of -8 M (SEQ 58) (Streptomyces phage phiC31).
T7 sequence: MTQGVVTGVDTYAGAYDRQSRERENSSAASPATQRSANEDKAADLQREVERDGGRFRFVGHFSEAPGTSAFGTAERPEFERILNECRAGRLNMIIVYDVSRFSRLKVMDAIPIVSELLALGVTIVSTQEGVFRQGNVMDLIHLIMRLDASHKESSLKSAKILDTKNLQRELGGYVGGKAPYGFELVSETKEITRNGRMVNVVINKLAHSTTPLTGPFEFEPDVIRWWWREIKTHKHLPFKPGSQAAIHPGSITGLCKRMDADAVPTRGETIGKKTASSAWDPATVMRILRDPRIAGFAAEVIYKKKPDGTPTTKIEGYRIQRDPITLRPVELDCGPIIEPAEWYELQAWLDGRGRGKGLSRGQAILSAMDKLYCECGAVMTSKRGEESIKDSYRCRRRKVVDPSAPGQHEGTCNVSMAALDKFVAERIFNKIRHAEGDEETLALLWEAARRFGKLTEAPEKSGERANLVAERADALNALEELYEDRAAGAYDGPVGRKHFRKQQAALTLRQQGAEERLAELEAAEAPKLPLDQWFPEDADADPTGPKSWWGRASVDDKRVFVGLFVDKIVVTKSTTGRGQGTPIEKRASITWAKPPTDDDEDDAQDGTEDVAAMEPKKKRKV
To be noted: DF-1 cells; 6 colonies avg.

The subject of series [8] is T8, 3rdGTG-int-NLS234 insertion PPKKKRKVE between G and S at position 234 (SEQ 61) (Streptomyces phage phiC31).
T8 sequence: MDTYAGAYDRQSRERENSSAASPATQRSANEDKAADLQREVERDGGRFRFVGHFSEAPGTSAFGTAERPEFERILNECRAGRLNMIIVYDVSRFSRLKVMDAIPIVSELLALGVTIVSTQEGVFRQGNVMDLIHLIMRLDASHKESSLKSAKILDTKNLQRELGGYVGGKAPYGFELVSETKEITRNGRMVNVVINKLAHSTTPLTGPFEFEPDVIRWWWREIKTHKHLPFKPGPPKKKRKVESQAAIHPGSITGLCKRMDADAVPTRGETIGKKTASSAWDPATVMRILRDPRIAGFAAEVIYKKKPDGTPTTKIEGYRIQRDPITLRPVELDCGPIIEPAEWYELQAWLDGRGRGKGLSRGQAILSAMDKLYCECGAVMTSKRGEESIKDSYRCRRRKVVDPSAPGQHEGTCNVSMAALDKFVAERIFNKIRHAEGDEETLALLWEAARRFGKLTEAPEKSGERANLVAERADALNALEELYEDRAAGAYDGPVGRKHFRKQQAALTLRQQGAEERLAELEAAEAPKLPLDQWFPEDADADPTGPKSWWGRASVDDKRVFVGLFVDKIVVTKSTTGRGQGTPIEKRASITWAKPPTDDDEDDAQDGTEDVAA
To be noted: DF-1 cells; 30 colonies avg.

For the substance phiC31 attB (donor plasmid), the activity (fold over no integrase) in series [1] was 1; in series [2], 5.4; in series [3], 3.8; in series [4], 32.3; in series [5] it was 39.9; in series [6] it was 21.6. Moreover, the activity (fold over no integrase) in series [7] stood at 2.3; in series [8] it was 11.5.
